The target in series [1] is T1, TTHA1953 (Thermus thermophilus HB8, UniProt Q5SGX7 1-93).
T1 sequence: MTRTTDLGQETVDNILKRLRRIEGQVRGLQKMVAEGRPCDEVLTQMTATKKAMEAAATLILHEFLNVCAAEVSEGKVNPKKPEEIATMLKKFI
The experiment in a line: BLI; 1 mM DTT; BLI: 20 mM Tris pH 7.5, 100 mM NaCl, 1 mM EDTA, 0.05% Tween-20, 1 mM DTT, 37 C; REPSA: 1x CutSmart, 1 mM DTT, 55 C 20 min then 37 C (REPA details not in materia). The following applies: protein: recombinant, chain copies: 8, blunt.

Series [2] deals with the molecule itself. The experiment in a line: non-reducing SDS-PAGE; 2 μg recombinant TTHA1953 treated with buffer, 10 mM CuCl2 or H2O2 for 20 min; Laemmli buffer with or without 350 mM β-mercaptoethanol; Coomassie staining.
Series [3] concerns the molecule itself. The experiment in a line: native gel or EMSA; adaptation of a Ferguson plot; apparent weight of the TTHA1953 complex bound to its consensus-sequence DNA (Fig. S3). A general note: Mobility shift assays separate free from complexed probe on a gel.
For series [4], the target named is T1, TTHA1953. The series is described as follows: BLI; 1 mM DTT; BLI: 20 mM Tris pH 7.5, 100 mM NaCl, 1 mM EDTA, 0.05% Tween-20, 1 mM DTT, 37 C; REPSA: 1x CutSmart, 1 mM DTT, 55 C 20 min then 37 C (REPA details not in materia). The following applies: protein: recombinant; chain copies: 8; label: 5' biotin on ST2R strand; blunt. On the technique in general: BLI is a label-free optical method that tracks binding on a fibre tip over time.

Where [5] appears, read: label: 5' biotin on ST2R strand.

B1: ST2_1953_mt9 (dsDNA)
DNA 1: CTAGGAATTCGTGCAGAGGTGAGCTTATACCTTGTGCTGGTACATCCCTCCAGAAGCTTGGAC
DNA 2: GTCCAAGCTTCTGGAGGGATGTACCAGCACAAGGTATAAGCTCACCTCTGCACGAATTCCTAG
B1: the binding result in the series with TTHA1953 [1] (setting [5]) is on record as “no binding”.

B2: ST2_1953_mt10 (dsDNA)
DNA 1: CTAGGAATTCGTGCAGAGGTGAGCTTAGCTCTTGGTATGGTACATCCCTCCAGAAGCTTGGAC
DNA 2: GTCCAAGCTTCTGGAGGGATGTACCATACCAAGAGCTAAGCTCACCTCTGCACGAATTCCTAG
Turning to B2, the binding result with TTHA1953 [1] (setting [5]) is given as “no binding”.

B3: Control (dsDNA)
DNA 1: CCTCTCTATGGGCAGTCGGTGATCTAGGAATTCGTGCAGAGGTGACGTCATAGAATTCGCATCCCTCCAGAAGCTTGGAC
DNA 2: GTCCAAGCTTCTGGAGGGATGCGAATTCTATGACGTCACCTCTGCACGAATTCCTAGATCACCGACTGCCCATAGAGAGG
B3: the binding result with TTHA1953 [1] (label: 5' IRDye800 on ControlL strand (REPA)) is listed as “no binding”.

B4: TTHA1953, CsoR-like protein from Thermus thermophilus HB8 (natural protein, UniProt Q5SGX7 1-93, looked up)
chain: MTRTTDLGQETVDNILKRLRRIEGQVRGLQKMVAEGRPCDEVLTQMTATKKAMEAAATLILHEFLNVCAAEVSEGKVNPKKPEEIATMLKKFI
notes: TTHA1953, CsoR-like protein of Thermus thermophilus HB8; expression vector TEx04A02 bought from RIKEN BioResource Research Center; has two cysteines (C39, C68); No tag is mentioned; Estimated homo-octamer weight 83 kDa, so about 10 kDa a chain; also called CsoR family transcriptional regulator; source: E. coli Rosetta 2 (DE3), purified (1 M NaCl extraction of the pellet after sonication, 70 °C …)
Take B4: the stoichiometry N (usually a count of units in the complex or per binding partner) was determined as 2 in series [2] and 8 in series [3].

B5: ST2_1953_mt8 (spacer -1) (dsDNA)
DNA 1: CTAGGAATTCGTGCAGAGGTGATACTATACCTGGTATGGTACATCCCTCCAGAAGCTTGGAC
DNA 2: GTCCAAGCTTCTGGAGGGATGTACCATACCAGGTATAGTATCACCTCTGCACGAATTCCTAG
For B5, the “Kd fold-change relative to consensus” value with TTHA1953 [4] is ~15 fold higher Kd than consensus.

B6: ST2_1953_mt7 (spacer +1) (dsDNA)
DNA 1: CTAGGAATTCGTGCAGAGGTGATACTATACCTCTGGTATGGTACATCCCTCCAGAAGCTTGGAC
DNA 2: GTCCAAGCTTCTGGAGGGATGTACCATACCAGAGGTATAGTATCACCTCTGCACGAATTCCTAG
Turning to B6, in the series with TTHA1953 [4], the “Kd fold-change relative to consensus” value is ~10 fold higher Kd than consensus.

For the origin of these results see article PMC10318464, “A CsoR family transcriptional regulator, TTHA1953, controls the sulfur oxidation pathway in Thermus thermophilus HB8” (The Journal of Biological Chemistry, 2023).
